Measured values: the RNAGym collection of RNA variant scans (doi:10.1073/pnas.2313332121)
Fewer inactive variants are shown than the library holds.

B1: TPR 5TU (parent)
chain: GGAUCUUCUCGAUCUAACAAAAAAGACAAAUCUGCCACAAAGCUUGAGAGCAUCUUCGGAUGCAGAGGCGGCAGCCUUCGGUGGCGCGAUAGCGCCAACGUUCUCAACUAUGACACGCAAAACGCGUGCUCCGUUGAAUGGAGUUUAUCAUG

Variants of: B1
Assay: polymerase ribozyme fitness, log enrichment relative to wild type (log ratio); higher = more active; in vitro selection for triplet polymerase activity
In short: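 Mutant libraries were PCR-built and transcribed for each subunit of a heterodimeric triplet polymerase ribozyme and selected for one round in triplicate at −7 °C, frozen, before gel excision of extended constructs and streptavidin-bead capture. Input and output libraries were Illumina-sequenced, keeping genotypes with ≥10 input reads and ≥1 read per output. Fitness is a logarithmic ratio of genotype to wild-type enrichment, in base 2, using inverse-variance-weighted replicate averages.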

| Variant | polymerase ribozyme fitness (log ratio) |
| --- | --- |
| U7C U9C A20U C75G C93U A106C C114A | ≤ -4.2 |
| C8G C43G A52G C93G C114G A121G | ≤ -4.2 |
| U7C C35U U127G | -3.61 |
| C8A A17C A24G A30G C35G G81C A89C G141C | -3.67 |
| U7A A28U G67C C87U C96G C123A | ≤ -4.2 |
| U7A A110C A138U | ≤ -4.2 |
| C8A G34C U45A G50A U55A G74A A91G U102G G140C G141A | ≤ -4.2 |
| U7C A16U G92C C116G | -3.77 |
| U7A C10G C32A U33A G50C G83U A91G U102C | ≤ -4.2 |
| U7A A26G A47G A66U G71C C131U U139G | ≤ -4.2 |
| C8A A17U A39U C85U U139A | ≤ -4.2 |
| U7A A29U A49C U53A G84C U102C | ≤ -4.2 |
| C8G G70C C93U C99U U148G | ≤ -4.2 |
| U7A C10G U55A C72U G94A U151A | ≤ -4.2 |
| C8A A24G A41C C93U A97U A120G | ≤ -4.2 |
| U7C G68U A73G U82A G92A U101C C116A A137C | ≤ -4.2 |
| C8A G42U G50A G74U C95U | ≤ -4.2 |
| U7C C18G G25C A28U C38G U55A G70C G94C | ≤ -4.2 |
| C8G A20C | -3.59 |
| C8G A22G U44A A52C A73C C125G | ≤ -4.2 |
| C8A U53A A73U G74U G92U A142U G143A | ≤ -4.2 |

| Variant | polymerase ribozyme fitness (log ratio) |
| --- | --- |
| U7A G58C | -3.68 |
| C8A A20U G42C C43G U44A A113U A142C | ≤ -4.2 |
| U7C C27G C57G G88C G124A U134G | ≤ -4.2 |
| U7G C27U G48C G59C C76U C79A G83U C93A | ≤ -4.2 |
| C8A C85A | -3.27 |
| C8G A41U A49C G62A C79U C85U C96U C114G A115G | ≤ -4.2 |
| U7G G34U A60U C93U A107U | ≤ -4.2 |
| U7G A23G C32A A115G | ≤ -4.2 |
| U7C C27G C96U | ≤ -4.2 |
| C8G G84A | -3.43 |
| C8G A22U C85U C103U | ≤ -4.2 |
| C8G A12G C35U C75A G86U U109G U127G A137G | ≤ -4.2 |
| U7C A23G A49U U56G G84U G86U A137U | ≤ -4.2 |
| C8G A41U U55G U56A G65A G70C U78A G81A C93A A122U | ≤ -4.2 |
| U7A U61A G62A G71C C103G | ≤ -4.2 |
| U7G C27A C93U A107G A150U | ≤ -4.2 |
| C8A A12U U15G G62U G124A | ≤ -4.2 |
| U7G A12C C51G A64C C123U C132G | ≤ -4.2 |
| C8A U31C A41U G58A G71A C76U C125U A142G | ≤ -4.2 |
| C8G A24G C76A U139A A142C U144C U148G | ≤ -4.2 |
| C8A C116U U135C A150G | ≤ -4.2 |

| Variant | polymerase ribozyme fitness (log ratio) |
| --- | --- |
| U7G A26U U56G G59C G83A C96U A138C | ≤ -4.2 |
| U7G C96U | -2.17 |
| C8A C85G C103U A110G U134G C149G | ≤ -4.2 |
| C8G C96U | -3.47 |
| C8A C14G C27U G46A C76A U109G C131U G143A | ≤ -4.2 |
| U7C C10U A40C C85A A89C G100A C116A | ≤ -4.2 |
| U7G C57U G59C G88A C93A A115C | ≤ -4.2 |
| C8A G50U G74C G80A C85U U139C G141C | ≤ -4.2 |
| C8G A24U G25U G80A C96G C125A | ≤ -4.2 |
| U7C | -1.19 |
| U7G | -2.22 |
| U7G A64C A122G | ≤ -4.2 |
| C8G A52U C95U U104G G140U | ≤ -4.2 |
| U7C G50A A66G | ≤ -4.2 |
| C8A C35G C51U G59A A73G C76A C85G A138U U151C | ≤ -4.2 |
| U7G A26U U56A G59U C75G G84U G94U U130G U146C | ≤ -4.2 |
| U7G C93G U139A | ≤ -4.2 |
| C8A A12G A41C A47G U53A G143U U151C | ≤ -4.2 |
| U7G U15G U56G C93A A115C U130G | ≤ -4.2 |
| U7C C8G A30C C85G U134A | ≤ -4.2 |
| C8G A30C C75A G86U C118G | ≤ -4.2 |

| Variant | polymerase ribozyme fitness (log ratio) |
| --- | --- |
| U7C C38U C87A A122U | ≤ -4.2 |
| C8G C10G C14G A41C G83U A119U G141C | ≤ -4.2 |
| U7G A17C A24U A52G A64G C72G C85U G88U G92U C93G A119U | ≤ -4.2 |
| U7G C14G A52C U55C G80A G86U C87A | ≤ -4.2 |
| C8A A22U A41C C93A G136C | ≤ -4.2 |
| C8G C57A G84U C114U U148C A150C | ≤ -4.2 |
| C8G C32U G80U | -4.14 |
| U7C G50C C51U C87U G152U | ≤ -4.2 |
| C8G C87U | -3.36 |
| U7C U15G A41U A52G C96A | -3.52 |
| C8G A17G A21U A98G | -3.93 |
| C8A U15G C95U A98G C149U A150U | -4.06 |
| U7G C75G G84A G141A | ≤ -4.2 |
| U7G C8A G46C C63U G83C C85G C114G C149A | ≤ -4.2 |
| U7G A22U C43U C93A A142G | ≤ -4.2 |
| C8G A21C | -3.31 |
| U7A U9C A20G U53G C87U A98U | -3.99 |
| C8G G42A G59U A66U C87G U139G | ≤ -4.2 |
| U7A A29C A60U C76G C95U G133A G141A | ≤ -4.2 |
| C8A A17U U55A G81C C87A A91U U144C U145C | ≤ -4.2 |
